The record followed here is article PMC12098869, “An mRNA-display derived cyclic peptide scaffold reveals the substrate binding interactions of an N-terminal cysteine oxidase” (Nature Communications, 2025).

B1: 2-aminoethanethiol dioxygenase (ADO), full-length human, N-terminally His-tagged and biotinylated (pQE80L-Navi-ADO) [modified: biotin (biotinylated during expression, 0.2 mM biotin added); biotin (biotinylated during … (parent)
chain 1: CFPKVLSDDMKKLK
chain 2: MPRDNMASLIQRIARQACLTFRGSGGGRGASDRDAASGPEAPMQPGFPENLSKLKSLLTQLRAEDLNIAPRKATLQPLPPNLPPVTYMHIYETDGFSLGVFLLKSGTSIPLHDHPGMHGMLKVLYGTVRISCMDKLDAGGGQRPRALPPEQQFEPPLQPREREAVRPGVLRSRAEYTEASGPCILTPHRDNLHQIDAVEGPAAFLDILAPPYDPDDGRDCHYYRVLEPVRPKEASSSACDLPREVWLLETPQADDFWCEGEPYPGPKVFP
B2: 2-aminoethanethiol dioxygenase (ADO), full-length human, N-terminally His-tagged and biotinylated (pQE80L-Navi-ADO) [modified: biotin (biotinylated during expression, 0.2 mM biotin added); biotin (biotinylated during … (parent)
chain 1: CKGLAALPHSCLER
chain 2: B1 chain 2

The variants in one test derive from B1. The test can be described thus: SPR. To be noted: with IL32_(2-15), parent: 1, read off a plot.
For the variant chain 2 Y212F, the ratio to parent (fold difference) came out at 19.

Take chain 2 Y212A: the ratio to parent (fold difference) is 60.

As to chain 2 D206N, the ratio to parent (fold difference) is -7.

In another test the parent is B2. In words: SPR. To be noted: with RGS5_(2-15), parent: 1, read off a plot.
Take chain 2 D206N: the ratio to parent (fold difference) was -4.

As for chain 2 Y212A, the ratio to parent (fold difference) stood at 110.

In the case of chain 2 Y212F, the ratio to parent (fold difference) is 39.
